Source: patent US20200197469A1

Columns and labels:
[1] = target: purified HIV-1 gp120 (HIV-1); experiment: SPR (Biacore); gp120 immobilized on the chip, MOMO30 flowed at 6.25 nM to 200 nM; triplicate on separate days
[2] = target: purified HIV-1 gp120 (HIV-1); experiment: cell-based or functional assay

MOMO30 protein from Momordica balsamina
Kd [1]: 5800 nM
IC50 in MAGI infectivity assay, HIV-1 lab strain NL4-3 [2]: 0.032 nM
